± gives the standard error. Fewer inactive variants are shown than the library holds.
B1: glmS ribozyme (parent)
chain: AUAAAAGCGCCAGAACUACAGAAAUGUAGUUGACGAGGAGGAGGUUUAUCGAAUUUUCGGCGGAUGCCUCCAAA

Variants of: B1
Assay: self-cleavage kobs at 2500 uM GlcN6P; higher = faster cleavage; RNA array
Conditions: with glucosamine-6-phosphate
Outline: (§1)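 Sequenced MiSeq chips were the platform: E. coli RNA polymerase transcribed barcoded ribozyme variants on them in situ, and a hybridised Cy3 probe tracked these at 37 °C. After glucosamine-6-phosphate (40 μM to 10 mM) in HEPES/KCl/Mg(OAc)2 buffer was flowed in, tiles were imaged over ~14 h. Signals normalised to baseline and to non-cleaving reference variants were reduced to per-tile medians and fit to one- or two-exponential decays to obtain kobs. kcat and KM were derived through weighted Michaelis–Menten fits across concentrations.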

self-cleavage kobs at 2500 uM GlcN6P, 4.22e-05 ± 1e-05 s⁻¹:
AUAAAAGCGCCAGAACUACAGAAAUGUAGUUAACGAGGAGGAGGUUUAUCGAUUUAUCGGCGGAUGCCUCUAAA

self-cleavage kobs at 2500 uM GlcN6P, 0.00088 ± 0.0003 s⁻¹:
AUAAAAGCGCCAGAACUACAGAAAUGUAGUUAACGAGGAGGAUGUUUAUCGAAUUUUCGGCGGAUACGUCCAAA

self-cleavage kobs at 2500 uM GlcN6P, 0.000162 ± 5.8e-05 s⁻¹:
AUAAAAGCGCCAGAACUACAGAAAUGUAGUUCACGAGGAGGAGGUUUAUGGAAUAGCCGGCGGAUGCCUCCAAA

self-cleavage kobs at 2500 uM GlcN6P, 0.000148 ± 4.3e-05 s⁻¹:
AUAAAAGCGCCAGAACUACAGAAAUGUAGUUUACGAGGAGGAGGUUUAUCGAAUGGUCGGCGGAUGCCUCCAAA

self-cleavage kobs at 2500 uM GlcN6P, < 1e-05 s⁻¹:
AUAAAAGCGCCAGAACUACAGAAAUGUAGUUGGCACGGAGAAGGUUUAUCGAAUUUUCGGGGGAUGCGUCCAAA
AUAAAAGCGCCAGAACUACAGAAAUGUAGUUGGCGAGGAGGAGGUUCAUCGAAUUUUCGGGGGAUGCCUCCAAA
AUAAAAGCGCCAGAACUACAGAAAUGUAGUUGGCGUGGAGGAGGUUUAUCGAAUUUUCGGCGGAGGCCUCCAAA
AUAAAAGCGCCAGAACUACAGAAAUGUAGUUCACGAGGAGGAGGUUUAUCGAAGUUUCGGCGGUUGCCUCCAAA
AUAAAAGCGCCAGAACUACAGAAAUGUAGUUAACGAGGAGUAGGUUUAUUGAAUUAUCGGCUGAUGCCUCCAAA
AUAAAAGCGCCAGAACUACAGAAAUGUAGUGGUCGAGGAGGAGGUUUAUCGAAUUUUCGGCGGAUGCGUCCAAA
AUAAAAGCGCCAGAACUACAGAAAUGUAGUUAACAAGGAGGAGGUUUAUCGAAUUUUCGGAGAAUGCCUUCAAA
AUAAAAGCGCCAGAACUACAGAAAUGUAGUGGACGAGCAGGAGAUUUAUCGAAUUUUCGGCGGAUGCCUCCAAA
AUAAAAGCGCCAGAACUACAGAAAUGUAGUUGCCGAGGAAGACGUUUAUCGCAUUUUCGGCGGAUGCCUCCAAA
AUAAAAGCGCCAGAACUACAGAAAUGUAGUUGGCGAGGAGGAGGUUAAUCGCAUUUUCGGCGGAUGCCUACAAA
AUAAAAGCGCCAGAACUACAGAAAUGUAGUUAACGAGGAGGAGGCUUAUCGGAUUUUCGGCGGAUGCCUCCAAA
AUAAAAGCGCCAGAACUACAGAAAUGUAGUUCACGAGGAGGAGGUUUAUCUAAUUCUCGGCGGAUGCCUCCAAA
AUAAAAGCGCCAGAACUACAGAAAUGUAGUUCACGAGGAGGAGGUUUUUCGAAUUUUCGGCGGAUGCUUCCAAA
AUAAAAGCGCCAGAACUACAGAAAUGUAGUUGCCUAGGAGGAGGUUUAUCGAAUUUCCGGCGGAUGCCUCCAAA
AUAAAAGCGCCAGAACUACAGAAAUGUAGUUGCCGAGGAGGAGGUUUAUCGAAUUCUCGGCGUAUGCCUCCAAA
AUAAAAGCGCCAGAACUACAGAAAUGUAGUGGAGGAGGAGGAGGUUUAUCGAAUUUUCGGCGGGUGGCUCCAAA
AUAAAAGCGCCAGAACUACAGAAAUGUAGUUCACGACGAGGAGGUUUAUAGAAUUUUCGCCGGAUGCCUCCAAA
AUAAAAGCGCCAGAACUACAGAAAUGUAGUUUACGAUGAGGAGGUUUAUCGAAUUUUUGGCGGAUGCCUCCAAA
AUAAAAGCGCCAGAACUACAGAAAUGUAGUUCACGAGGCGGAGGUUUAUCGAAUUUUCGGGGGAUGCCUUCAAA
AUAAAAGCGCCAGAACUACAGAAAUGUAGUCGACGAGGAGGAGGUUUACCGAAUUUUCGGCGGAGGCCUCCAAA
AUAAAAGCGCCAGAACUACAGAAAUGUAGUUGCCGUGCAGGAGGUUUAUCGAAUUUUCGGCGGAUGCCUCCAAA
AUAAAAGCGCCAGAACUACAGAAAUGUAGUUCACGAGGAGGAGGUUUAUUGAAUUUUGGGCGGAUGCCUCCAAA
AUAAAAGCGCCAGAACUACAGAAAUGUAGUUGUCGAGGAGGAGGUUUUUCGAAUUUUCGGCUGAUGCCUCCAAA
AUAAAAGCGCCAGAACUACAGAAAUGUAGUUGUCGAGGAGGAGGUUUAUCGAAUUUUCGGCGGCUGCCUACAAA
AUAAAAGCGCCAGAACUACAGAAAUGUAGUUGGCGAGGAGGAGGUUUAUCGAAUUUUCCGCGGAUGCUUCCAAA
AUAAAAGCGCCAGAACUACAGAAAUGUAGUUGCCGAGGAGGAGGUUUAUCGACUUUUCGGGGGAUGCCUCCAAA
AUAAAAGCGCCAGAACUACAGAAAUGUAGUCGACGAGGAGGAGGUUUAUCGAAUUUUCAGCGGAUUCCUCCAAA

self-cleavage kobs at 2500 uM GlcN6P, 0.000106 ± 3.8e-05 s⁻¹:
AUAAAAGCGCCAGAACUACAGAAAUGUAGUCGACGAGGAGGAGGUUUAUCGAAUAUUCGGCGCAUGCCGCCAAA

self-cleavage kobs at 2500 uM GlcN6P, 0.000168 ± 7.3e-05 s⁻¹:
AUAAAAGCGCCAGAACUACAGAAAUGUAGUUAACGAGGAGGAGGUUUAUGGAAUUUUCGGCGGAUGCCUCUAAA

self-cleavage kobs at 2500 uM GlcN6P, 5.28e-05 ± 1.6e-05 s⁻¹:
AUAAAAGCGCCAGAACUACAGAAAUGUAGUGGACGAAGAGGAGGUUUAUCGAAUUUUCGGCGGAUGUCUCCAAA

Variants of: B1
Assay: self-cleavage kobs at 10000 uM GlcN6P; higher = faster cleavage; RNA array
Conditions: with glucosamine-6-phosphate
Outline: as §1

self-cleavage kobs at 10000 uM GlcN6P, < 1e-05 s⁻¹:
AUAAAAGCGCCAGAACUACAGAAAUGUAGUUAACGAGGAGUAGGUUUAUUGAAUUAUCGGCUGAUGCCUCCAAA

self-cleavage kobs at 10000 uM GlcN6P, 0.000376 ± 8.4e-05 s⁻¹:
AUAAAAGCGCCAGAACUACAGAAAUGUAGUUUACGAGGAGGAGGUUUAUCGAAUGGUCGGCGGAUGCCUCCAAA

self-cleavage kobs at 10000 uM GlcN6P, 0.000189 ± 3.7e-05 s⁻¹:
AUAAAAGCGCCAGAACUACAGAAAUGUAGUGGACGAAGAGGAGGUUUAUCGAAUUUUCGGCGGAUGUCUCCAAA
